Molecular target: human EphA2 (human) (UniProt P29317)
Test: cell-based or functional assay

Binder	EC50 of redirected lysis, 51Cr release, A549 [µg/mL]	EC50 of redirected lysis, 51Cr release, A549, second experiment [µg/mL]	EC50 of redirected lysis, 51Cr release, MDA MB231 [µg/mL]	EC50 of redirected lysis, 51Cr release, MDA MB231, second experiment [µg/mL]	EC50 of redirected lysis, 51Cr release, A549, NK-depleted PBMC, E:T 10:1, 18 h [µg/mL]	EC50 of redirected lysis, 51Cr release, MDA MB231, NK-depleted PBMC, E:T 10:1, 18 h [µg/mL]
EphA2-BiTE EA2 (VH/VL) × deimmunized anti-CD3 (VH/VL) (bispecific antibody, part only; not given: anti-CD3 scFv, part only) chain, part: DVKLVESGGGLVKPGGSLKLSCAASGFTFSSYTMSWVRQTPEKRLEWVATISSGGTYTYYPDSVKGRFTISRDNAKNTLYLQMSSLKSEDTAMYYCTREAIFTYWGQGTLVTVSAGGGGSGGGGSGGGGSDIKMTQSPSSMYASLGERVTITCKASQDINNYLSWFQQKPGKSPKTLIYRANRLVDGVPSRFSGSGSGQDYSLTISSLEYEDMGIYYCLKYDEFPYTFGGGTKLEIKGGGGSHHHHHH	0.184	0.163	0.0559	0.0721	–	–
EphA2-BiTE EA2 (VL/VH) × deimmunized anti-CD3 (VH/VL) (bispecific antibody, part only; not given: anti-CD3 scFv, part only) chain, part: DIKMTQSPSSMYASLGERVTITCKASQDINNYLSWFQQKPGKSPKTLIYRANRLVDGVPSRFSGSGSGQDYSLTISSLEYEDMGIYYCLKYDEFPYTFGGGTKLEIKGGGGSGGGGSGGGGSDVKLVESGGGLVKPGGSLKLSCAASGFTFSSYTMSWVRQTPEKRLEWVATISSGGTYTYYPDSVKGRFTISRDNAKNTLYLQMSSLKSEDTAMYYCTREAIFTYWGQGTLVTVSAGGGGSHHHHHH	–	–	–	0.086	0.17	0.0538
